Our source for the velocity of rapalog-induced peroxisome transport by Nesp2-SR48ΔKASH-FRB (5655-6767aa) along microtubules in MRC5 cells, both directions and ratio to parent values is publication PMC11310688.

Test [1] concerns the target Halo-HA-Nesp2-SR48∼56 (Nesprin-2 spectrin repeats 48-56) (mouse) (UniProt Q6ZWQ0).
The target in test [2] is kinesin heavy chain (KHC) (UniProt P33176). The test is described as follows: co-immunoprecipitation (IP: anti-Halo) with immunoblot quantification. Particulars: HEK293 cell lysate; n = 5 independent experiments; bars mean ± SEM; parent: est. 1.0; read off a plot. On the technique in general: Immunoblotting shows a protein as a band on a membrane.
Test [3] deals with dynactin subunit p150^Glued, Q14203-1. Described as above. The note with it: HEK293 cell lysate, bars mean ± SEM, parent: est. 1.0, read off a plot.

The substance “Bicaudal D2 (BicD2) (from UniProt Q8TD16 1-824) (natural protein)” showed a velocity of rapalog-induced peroxisome transport by Nesp2-SR48ΔKASH-FRB (5655-6767aa) along microtubules in MRC5 cells, both directions in test [1] of 1 µm/s.
As to “Halo-HA-Nesp2-SR48-KASH (Nesprin-2 SR48-56 and the KASH domain) (from UniProt Q6ZWQ0-1) ALALE>AAAAA; SLFTE>AAAAA; RLARE>AAAAA; AAWLG>VVWLG”, the ratio to parent in test [2] worked out at 0.22; in test [3] (n = 5 independent experiments), 0.19.
Consider “Halo-HA-Nesp2-SR48-KASH (Nesprin-2 SR48-56 and the KASH domain) (from UniProt Q6ZWQ0-1) ALALE>AAAAA; SLFTE>AAAAA; RLARE>AAAAA; LEWD>LEAA; AAWLG>VVWLG”, for which the ratio to parent in test [3] (3 data points drawn for this bar) worked out at 0.08.
“Halo-HA-Nesp2-SR48-KASH (Nesprin-2 SR48-56 and the KASH domain) (from UniProt Q6ZWQ0-1) LEWD>LEAA”: the ratio to parent in test [3] (n = 5 independent experiments) stood at 0.98.
Consider “dynactin subunit p150^Glued (from UniProt Q14203-1 1-1278) (natural protein)”, for which the velocity of rapalog-induced peroxisome transport by Nesp2-SR48ΔKASH-FRB (5655-6767aa) along microtubules in MRC5 cells, both directions in test [1] came out at 1 µm/s.
Substance “dynein heavy chain (DHC) (from UniProt Q14204 1-4646) (natural protein)” registered a velocity of rapalog-induced peroxisome transport by Nesp2-SR48ΔKASH-FRB (5655-6767aa) along microtubules in MRC5 cells, both directions in test [1] of 1 µm/s.
In test [1], “kinesin heavy chain (KHC) (from UniProt P33176 1-963) (natural protein)” returned a velocity of rapalog-induced peroxisome transport by Nesp2-SR48ΔKASH-FRB (5655-6767aa) along microtubules in MRC5 cells, both directions of 1 µm/s.
